Measured values: patent US12466859B2, “Desmoglein 2 (DSG2) binding proteins and uses therefor” (UNIVERSITY OF WASHINGTON THROUGH ITS CENTER FOR …, priority 2013, dated 2025)
Numbering of substitutions follows the chain as printed. Names and notes keep the numbering of the source. “Also recorded” adds a separate entry of the source.

B1: D261N (protein)
chain: MKVSALKEKVSALKEKVSALKEKVSALKEKVSALKEGSGGGSGGGSGGGSNSIALKNNTLWTGPKPEANCIIEYGKQNPDSKLTLILVKNGGIVNGYVTLMGASDYVNTLFKNKNVSINVELYFDATGHILPDSSSLKTDLELKYKQTADFSARGFMPSTTAYPFVLPNAGTHNENYIFGQCYYKASNGALFPLEVTVMLNKRLPDSRTSYVMTFLWSLNAGLAPETTQATLITSPFTFSYIREDD
B2: JO-4 (protein)
chain: B1 chain with Y177F, N188D

Tests used:
Ad3-GFP virus = test: Competition of Ad3-GFP virus infection on HeLa cells; assay type: cell-based, adenovirus serotype 3; conditions: pre-incubation with knob; GFP expression
Method: FIG. 3A-3D. Competition of Ad3 virus by dimerized Ad3 knob mutants. FIG. 3A) Relative attachment of ^3H-labeled Ad3 virus in the presence of dimeric fiber knob mutants. 1.8×10^5 HeLa cells were incubated with Ad3 knob mutants at a concentration of 2.5 and 100 μg/ml on ice for 1 hour. Then 400 pfu/cell of ^3H-Ad3 virus was added on ice for another hour. Unbound virus particles were washed away. Attachment of virus particles incubated with PBS was taken as 100%. N=3. FIG. 3B1-3B2) Competition of Ad3-GFP virus infection on HeLa cells. 1.5×10^5 HeLa cells were seeded into 24 well plates. Cells were incubated with the Ad3 knob mutants at increasing concentrations for one hour at room temperature. 100 pfu/cell of Ad3-GFP virus were then added and GFP expression was analyzed 18 hours later by flow cytometry. FIG. 3B1) percentage of GFP positive cells. FIG. 3B2) mean fluorescence intensity. N=3. The standard deviation was less than 10%. FIG. 3C) Relative attachment of ^3H-labeled Ad3 virus in the presence of dimeric fiber knob mutants with multiple mutations. The study was performed as described in […]) The standard deviation was less than 10%. FIG. 3D) Competition of Ad3-GFP virus infection on HeLa cells. The study was performed as described in FIG. 3C) The standard deviation was less than 10%.
FIG. 9A1-9C. Analysis of dimeric Ad3 fiber knob mutants with increased affinity to DSG2. FIG. 9A1-9A2) Competition of Ad3-GFP virus infection on HeLa cells with dimeric affinity-enhanced mutant Y250F and JO-1 (dimeric wt Ad3 fiber knob). The experimental setting is as described for FIG. 3C. FIG. 9A1) percentage of GFP positive cells. FIG. 9A2) mean fluorescence intensity. N=3. The standard deviation was less than 10%. […] 100 pfu/cell of Ad3GFP virus were then added and GFP expression was analyzed 18 hours later. […]
Functional validation. […] Transduction was measured based on GFP expression (FIG. 3B). […] Dimeric Ad3 knob mutants with combined mutations were also analyzed for their ability to compete with Ad3 virus for attachment (FIG. 3C) and infection (FIG. 3D).

TNBC MDA-MB-231 tumors = test: Enhancement of nab-paclitaxel/cetuximab therapy in orthotopic TNBC MDA-MB-231 tumors; assay type: in vivo, CB17 SCID-beige mice; conditions: 2 mg/kg i.v. 1 hour before cetuximab 10 mg/kg i.p. and nab-paclitaxel 5 mg/kg i.v., weekly
Method: FIG. 10A-10C. Combination of affinity-enhanced JO-1 versions with chemotherapy. FIG. 10A) Enhancement of irinotecan (I) therapy. The experimental setting was the same as in FIG. 5B. […] N=5. […] Mammary fat pad tumors were established from primary ovarian cancer ovc316 cells. Treatment was started when tumors reached a volume of 100 mm^3. Mice were injected intravenously with 2 mg/kg JO-1 or with 0.5 mg/kg JO-4, followed by an intravenous injection of PEGylated liposomal doxorubicin (PLD) (1 mg/kg) one hour later. Treatment was repeated weekly. […] A total of 4×10^6 TNBC MDA-MB-231 cells were injected into the mammary fat pad of CB17 SCID-beige mice. JO-4 (2 mg/kg) was intravenously injected 1 hour before the application of cetuximab (C) (10 mg/kg, i.p.) and nab-paclitaxel (nab-P) (5 mg/kg, i.v.). Treatment was given weekly. N=10 P<0.01 at day 25 for nab-P+C vs JO-4+nab-P+C.
A549, MDA-MB-231, and ovc316 xenograft tumors were established by injection of the corresponding tumor cells into the mammary fat pad (1:1 with Matrigel) of CB17 mice. TC1-DSG2 tumors were established by subcutaneous injection of TC1-DSG2 cells into DSG2 transgenic mice. […] Tumor volumes were measured three times a week. […]

| Molecule | Inhibition of Ad3-GFP infection of HeLa cells, in words (Ad3-GFP virus) | Enhancement of nab-paclitaxel/cetuximab therapy (TNBC MDA-MB-231 tumors) |
| --- | --- | --- |
| B1 | least reduced | – |
| B2 | – | significantly increased; also recorded: enhances therapy |
